Test results published in paper PMC12374583 (2025).

Target: CR3 (Homo sapiens, UniProt P11215)
Test: MST

SSKITHRIHWESASLLR [Complement C3]
Kd: 5.73 nM
